Patent publication US20250032577A1

Legend:
Gq proteins [1] = molecular target: Gq proteins
Gq proteins [2] = molecular target: Gq proteins; remark: listed apart in the source
Gq proteins [3] = molecular target: Gq proteins; remark: listed apart in the source

Substance | Ca^2+ signal increase in HEK 293T cells (Gq proteins [1]) | light-induced increase in Ca^2+ signal (Calbryte 630 AM) in HEK 293T cells (Gq proteins [2]) | Ca^2+ transients (Calbryte 630 AM) in primary mouse astrocytes (Gq proteins [3])
human OPN4 (from UniProt Q9UHM6) (receptor) | 1 ΔF/F |  | 
opto-a1AR (receptor) | 0.5 ΔF/F |  | 
Turtle Opn5 (receptor) |  | 3 ΔF/F | 
Chicken Opn5 (receptor) |  | 3 ΔF/F | 8 ΔF/F
